Test results: PMC10729150 (Journal for Immunotherapy of Cancer, 2023)

How the values were obtained:
[1] = biological target: T1, Recombinant human CTLA-4-Fc (human, UniProt P16410); test: SPR
[2] = biological target: T1, Recombinant human CTLA-4-Fc; test: ELISA

T1 sequence (P16410 36-161): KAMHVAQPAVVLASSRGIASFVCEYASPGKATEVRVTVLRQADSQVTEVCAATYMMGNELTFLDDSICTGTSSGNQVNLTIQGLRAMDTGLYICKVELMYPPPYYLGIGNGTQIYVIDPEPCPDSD

Binder	Kd [1] [pM]	Kd [2] [pM]
XTX100 (antibody, V domains shown) VH: QVQLVQSGAEVKKPGSSVKVSCKASGYTFTNYFMNWVRQAPGQGLEWMGRVDPEQGRADYAEKFKKRVTITADKSTSTAYMELSSLRSEDTAVYYCARRAMDNYGFAYWGQGTLVTVSS VL: EIVLTQSPDFQSVTPKEKVTITCSANSALSYMYWYQQKPDQSPKLWVHGTSNLASGVPSRFSGSGSGTDFTLTINSLEAEDAATYYCHHWSNTQWTFGGGTKVEIK	91	160
XTX101+MMP (proteolytically activated XTX101) (antibody, V domains shown) VH: QVQLVQSGAEVKKPGSSVKVSCKASGYTFTNYFMNWVRQAPGQGLEWMGRVDPEQGRADYAEKFKKRVTITADKSTSTAYMELSSLRSEDTAVYYCARRAMDNYGFAYWGQGTLVTVSS VL: EIVLTQSPDFQSVTPKEKVTITCSANSALSYMYWYQQKPDQSPKLWVHGTSNLASGVPSRFSGSGSGTDFTLTINSLEAEDAATYYCHHWSNTQWTFGGGTKVEIK	127	240
